In the supplement of paper PMC9170038:

Test system: MS2 coat protein
Experiment: apparent KD of MS2 coat protein; designed switch direction (-1 OFF switch, 1 ON switch): 1; higher = weaker reporter binding
Summary of the method: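 Designed RNA switches sharing common flanks were transcribed on Illumina chips by stalled E. coli RNA polymerase. They were titrated with SNAP-549-labelled MS2 coat protein, from 0.7 or 1.5 nM doubling to 3 µM, in Tris-HCl pH 7.5 buffer with KCl, MgCl2, BSA, DTT, tRNA and Tween-20. Titrations ran without input, with 200 uM small-molecule ligand, or with an oligonucleotide input. The apparent KD of each design is the median over its clusters, after curve-fitting of normalised cluster fluorescence.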

[1] = Eterna round: R95, input ligand: FMN 200 uM
[2] = Eterna round: R95, input ligand: microRNA oligo, concentration not stated
[3] = Eterna round: R95, input ligand: none
[4] = input ligand: microRNA oligo, concentration not stated

| Sequence | apparent KD of MS2 coat protein [1] [nM] | apparent KD of MS2 coat protein [2] [nM] | apparent KD of MS2 coat protein [3] [nM] | apparent KD of MS2 coat protein (input ligand: FMN 200 uM) [nM] | apparent KD of MS2 coat protein [4] [nM] | apparent KD of MS2 coat protein (input ligand: none) [nM] |
| --- | --- | --- | --- | --- | --- | --- |
| ACAAGACAUGAGGAUCACCCAUGUAUAAAUUACACAGGAUAUCGGCAGGCAGCACCUGCACGAGAAGGGUGACUUC [Inbilera] (puzzle: Same State 1) | 193 | 21.7 | 27.3 | – | – | – |
| AAUUAAGAUUAAGGAUAUCACGUCGAAUAGACGUGAGAAGGUGAUCAUAACAUGAGGAUCACCCAUGUAUUACAUGAAUUAAUU [SSNG1/3-B1] (Eterna round: R96, puzzle: Same State NG 1) | – | – | – | 873 | 218 | 498 |
| UUCGAGUAGCAAGGAUAUCUUAUUUAGAUUUUAAGAGAAGGUGCUUCACAGCUACAUGAGGAUCACCCAUGUCUUUCUUCUUAU [JR_SSNG1_Sub065] (Eterna round: R96, puzzle: Same State NG 1) | – | – | – | – | 27.3 | – |
| AUAAGGCAAGCUUUUUUCUCGUAAUGUAAACAUGAGGAUCACCCAUGUGCCCAUCCUGGAUCUUUGGAUCGCAGAAC [Usbexe] (puzzle: Sensor for hsa-mir-208a) | 34.6 | 25.9 | 40.7 | – | – | – |
| UAGAAACAUGAGGAUCACCCAUGUGUCAAAGACAUAGGAUAUCACGGCUAAAAUCAGCCGUGAGAAGGGUGGUAAA [Aisbira] (puzzle: Same State 1) | 57.1 | 61.1 | 56.2 | – | – | – |
| GAUAUACAUGAGGAUCACCCAUGUCAUAUGACAUGAGGAUAUGUACAGACUUCGGUCUGUACAGAAGGCAUGUGUC [SS1 - 1011 Omei Mod 1] (puzzle: Same State 1) | 60.5 | 338 | 530 | – | – | – |
| AAUCCUGUCACAGGAUAUCCGAGGGCAACCCUCGGAGAAGGGUGAUAGUCUAACAAACACACACAUGAGGAUCACCCAUGUUAA [Sogece] (Eterna round: R96, puzzle: Same State NG 1) | – | – | – | 76.9 | 113 | 133 |
| ACCAAUCCAAUAAAACAAGCGUGCUCGUCACAUGAGGAUCACCCAUGUUUAAGCGCUGUUCCUAAUUCCUCAGCGCC [Isoreder] (puzzle: Sensor for hsa-mir-208a) | 182 | 28.8 | 168 | – | – | – |
| ACAUGAACAUGAGGAUCACCCAUGUUUAGGAUCACCCAUGCUCAGGAUAUAGCAUGAGGACAUGACUAGAAGGGAGGUGCUGAG [Same State NG3 S2] (Eterna round: R96, puzzle: Same State NG 3) | – | – | – | 41 | 27 | 36.1 |
| CGUCCAGCCUGAGCUGGACAAAAGCAUGUACAUGAGGAUCACCCAUGUUCAUGUACAAGCUUUUUGCUCGUCUUAUG [salish99_208a_r3_054] (puzzle: Sensor for hsa-mir-208a) | 662 | 17.9 | 1110 | – | – | – |
| UUUAGUUGCGGGCAGGAUAUGUAUUAAAAUACAUGAGGAUCACCCAUGUGUGGGUAUAACACCCAACAGAAGGGCCAAUCGCGAC [Laonerce - 12] (puzzle: Same State 2) | 17.2 | 154 | 165 | – | – | – |
| UUAAUAAUGUUAGGAUAUACAUGAGGAAUCCUCGUAGAAGGAACAUGACAUGAGGAUCACCCAUGUAGCGCUCAGAAGAGCGCA [Mat - Same State NG 1 - JL mod - D47] (Eterna round: R96, puzzle: Same State NG 1) | – | – | – | 138 | 31.3 | 135 |
| UGUUGUAUUACAGGAUAUCUAUGAUUUGUAUUUAGAGAAGGGUAUUCACAUGAGGAUCACCCAUGUAUAUACGAGGAAGUUGUG [JMF's solution 62] (Eterna round: R96, puzzle: Same State NG 1) | – | – | – | 67.5 | 48.5 | 62.3 |
| UUCCCAGCGGGAGGAUAUGGUGCCUUGUUGGUGCUAGAAGGUCCAACAUGAGGAUCACCCAUGUGGGAGUGGUCGAAAGACCUC [SS NG10LRO09] (Eterna round: R96, puzzle: Same State NG 1) | – | – | – | 224 | 186 | 318 |
| GACAAGAAGUCAUAGGAUAUACAAGGAGUGACAUGAGGAUCACCCAUGUACCAUCACACUACCCAGUAGAAGGAUGGCAAUAAAA [Oranor] (puzzle: Same State 2) | 50.3 | 384 | 542 | – | – | – |
